Earlier results, collected in paper PMC6667839.

Biological target: IL-33 112-270 (Homo sapiens) (UniProt O95760)
Chain of UniProt O95760 (O95760 112-270): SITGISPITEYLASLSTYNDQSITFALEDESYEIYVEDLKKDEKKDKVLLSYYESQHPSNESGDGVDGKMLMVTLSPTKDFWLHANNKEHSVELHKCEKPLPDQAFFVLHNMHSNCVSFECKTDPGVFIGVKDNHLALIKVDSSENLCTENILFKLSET

## sST2 (from UniProt Q01638)
  Kd: 4 nM
